For this assay, the target named is T cell receptor gamma variable 9 (TRGV9) on human γδ T cells (human) (UniProt Q99603). Kind of assay: γδ T-cell binding (γδ-enriched T cells), readout 'Signal'.

B1: VG9B2, chimera human IgG1 mAb (silent Fc) of mouse anti-human TCR Vγ9 clone B3 (antibody, V domains shown)
VH: QGQMQQSGAELVKPGASVKLSCKTSGFTFSSNYISWLKQKPGQSLEWIAWIHGGTGGIGYNQKFTGKAQLTVDTSSTTAYMQFSSLTTEDSAIYYCARRGYGAWFAYWGQGTLVTVSA
VL: DIQMTQSPASLSASVGETVTITCRASENIHNYLAWYQQKQGKSPQLLVYNAKTLADGVPSRFSGSGSGTQYSLKINSLQPEDFGNYYCQHFWSYPLTFGAGTKLELK
As a reminder, the EC50 is the concentration at which the effect is half-maximal. B1 came in with a 50% effective concentration (EC50) of 0.56 nM.

These data come from US20220306739A1.
